Source: US20230381336A1 (SHANGHAI MIRACOGEN, published 2023)
Changes are numbered by the printed parent chain.

T1: human Claudin 18.1 (human, UniProt P56856 1-261)
T1 construct: whole, on cells; Splice variant used as specificity control
T1 sequence (looked up): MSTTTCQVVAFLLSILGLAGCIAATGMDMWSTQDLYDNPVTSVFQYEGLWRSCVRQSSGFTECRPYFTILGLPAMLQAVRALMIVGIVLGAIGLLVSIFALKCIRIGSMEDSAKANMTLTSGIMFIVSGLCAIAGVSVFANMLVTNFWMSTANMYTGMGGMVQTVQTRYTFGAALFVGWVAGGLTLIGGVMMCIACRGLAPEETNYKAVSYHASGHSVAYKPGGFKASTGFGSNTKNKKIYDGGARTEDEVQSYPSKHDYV

T2: human Claudin 18.2 (human, UniProt P56856-2 1-261)
T2 sequence (looked up): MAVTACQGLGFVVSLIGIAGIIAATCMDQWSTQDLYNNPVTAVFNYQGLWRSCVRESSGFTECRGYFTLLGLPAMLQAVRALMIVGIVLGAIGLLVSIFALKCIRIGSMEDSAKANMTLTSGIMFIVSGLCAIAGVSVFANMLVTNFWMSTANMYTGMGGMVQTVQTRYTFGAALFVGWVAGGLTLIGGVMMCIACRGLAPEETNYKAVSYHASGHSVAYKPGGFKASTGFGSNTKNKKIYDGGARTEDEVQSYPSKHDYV

B1: 18D10 chimera (antibody, V domains shown)
VH: DVQLQESGPGLVKPSQSLSLTCTVTGYSITSNYAWNWIRQFPGNKLEWMGYINYSGNTNYNPSLKSRISITRDTSKNQFFLQLNSVTAEDTATYYCATSYYGNSFIYWGQGTLVTVSA
VL: DIVMTQSPSSLTVTAGEKVTMSCKSSQSLLNSGNQKNYLTWYQQKPGQPPKLLIYWASTRESGVPDRFTGSGSGTDFTLTISSVQAEDLAVYYCQNAYSFPWTFGGGTKLEIK
notes: also called Clone 18D10; 18D10 mVH / 18D10 mVL
B2: 18A9 chimera (antibody, V domains shown)
VH: QVQLQQSGREVVRPGTSVKVSCKPSGYAFTNYLIDWVKQRPGQGLEWIGGINPGSGDTVYNEKFKAKATLTADKSSMTANMQLSSLTSDDSAVYFCARRVRGNSFDSWGQGTLVTVSA
VL: B1 VL with T5S, T75K, V91L, A97N, S99F, F100Y, W102L, G106A, I112L
notes: also called Clone 18A9; 18A9 mVH / 18A9 mVL
B3: CM311-18D10-VH3/VL2-ADC (other)
VH: QVQLQESGPGLVKPSETLSLTCTVSGGSISSNYAWNWIRQPPGKGLEWIGYINYSGNTNYNPSLKSRVTISRDTSKNQFSLKLSSVTAADTAVYYCATSYYGNSFIYWGQGTLVTVSS
VL: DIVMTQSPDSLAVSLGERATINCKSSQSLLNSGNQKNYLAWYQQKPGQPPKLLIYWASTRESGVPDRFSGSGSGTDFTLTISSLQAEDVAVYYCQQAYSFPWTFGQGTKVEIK
modifications: MC-vc-PAB-MMAE coupled to free cysteine thiols of the DTT-reduced antibody; average DAR 3.5 per antibody; sites not stated
B4: CM311-18D10-VH6/VL2-ADC (other)
VH: B3 VH with N53Y
VL: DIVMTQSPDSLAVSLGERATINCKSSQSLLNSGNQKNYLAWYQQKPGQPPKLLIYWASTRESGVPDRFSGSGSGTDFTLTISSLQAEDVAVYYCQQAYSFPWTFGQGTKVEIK
modifications: MC-vc-PAB-MMAE coupled to free cysteine thiols of the DTT-reduced antibody; average DAR 3.4 per antibody; sites not stated
B5: CM311-18A9-VH7/VL2-ADC (other)
VH: QVQLVQSGAEVKKPGASVKVSCKPSGYTFTNYLIDWVRQAPGQGLEWMGGINPGSGDTVYNEKFQGRVTLTADTSTSTVYMELSSLRSEDTAVYFCARRVRGNSFDSWGQGTLVTVSS
VL: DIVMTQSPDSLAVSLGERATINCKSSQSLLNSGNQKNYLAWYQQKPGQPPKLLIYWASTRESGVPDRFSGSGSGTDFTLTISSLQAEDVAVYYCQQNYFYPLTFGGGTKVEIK
modifications: MC-vc-PAB-MMAE coupled to free cysteine thiols of the DTT-reduced antibody; average DAR 3.0 per antibody; sites not stated

Tests used:
human Claudin 18.1 = target: T1, human Claudin 18.1; assay: flow cytometry (iQue) on HEK293 cells stably expressing human Claudin 18.1
Description: The cells were gently tapped, and 50 μL of serially diluted antibodies were added to each well (antibody concentration starting from 100 nM, 5-fold dilution for 8 gradients), and incubated at 4° C. for 1 hour. After the incubation, 140μL of 0.5% BSA was added to each well to wash 3 times, and 30 μL/well of secondary antibody AlexaFluro647 anti-human IgG (Jackson ImmunoResearch, Cat: 109-606-170) was added, and incubated at 4° C. for 40 minutes. After the incubation, 140 μL of 0.5% BSA was added to each well to wash 3 times, and finally each well was resuspended in 50 μL of PBS for detection by flow cytometry (iQue Screener).

human Claudin 18.2 = target: T2, human Claudin 18.2; assay: cell-based or functional assay

| binding result (human Claudin 18.1) | Binder | Mean IC50 of cell killing, LT-1C8 cells (KATO stable cell line, medium Claudin 18.2 expression), 96 h, CCK-8 or Presto-Blue (human Claudin 18.2) [µg/mL] | Mean IC50 of cell killing, LT-M11 cells (KATO stable cell line, high Claudin 18.2 expression), 96 h, CCK-8 or Presto-Blue (human Claudin 18.2) [µg/mL] | Mean IC50 of cell killing, row without a cell line label printed under LT-M11 (taken as a second LT-M11 series) (human Claudin 18.2) [µg/mL] |
| --- | --- | --- | --- | --- |
| no binding | B1 |  |  |  |
| no binding | B2 |  |  |  |
|  | B3 | 0.52 | 0.2 | 0.132 |
|  | B4 | 0.615 | 0.35 | 0.147 |
|  | B5 | 0.111 | 0.155 | 0.0512 |
